Reference: US20060040277A1 (published 2006)

Biological target: T1, GST-ATIPmouse-short fusion protein (from pGEX-4T1-GST-ATIPmouse-short), on glutathione-agarose beads (mouse, UniProt Q5HZI1 937-1053)
T1 construct: also called GA-GST-ATIPmouse-short; GST-ATIPc; not shown: glutathione S-transferase (GST) encoded by pGEX-4T-1 (Pharmacia)
T1 sequence: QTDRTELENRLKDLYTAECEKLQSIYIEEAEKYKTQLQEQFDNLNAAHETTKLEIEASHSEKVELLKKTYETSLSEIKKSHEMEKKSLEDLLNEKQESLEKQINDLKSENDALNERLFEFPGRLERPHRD
Test: GST pull-down, SDS-PAGE and immunoblot with anti-MBP

B1: MBP-AT1: fusion of Maltose Binding Protein and the C-terminal end of the human AT1 receptor (Leu 297-Glu 359) (receptor, UniProt P30556 297-359, looked up, not shown: large carriers)
chain: LNPLFYGFLGKKFKRYFLQLLKYIPPKAKSHSNLSTKMSTLSYRPSDNVSSSTKKPAPCFEVE
notes: range 297-359
  binding result: no binding
